Experimental data taken from patent US5914254.

Experiments:
[1] = molecular target: 125I-radiolabeled IGF-I; test: dot blot of serial dilutions of crude soluble fractions probed with 125I-IGF-I; tells of the amount of active protein, not of affinity
[2] = molecular target: insulin substrate
[3] = molecular target: native dsbA (with leader)-biotinylation peptide (pDM25453) (E. coli) (UniProt P0AEG4)

Oxidoreductase Activity of DsbA, Activity (U/min-mg), TEX fraction [2] [U/min-mg] | Substance | also measured
– | DsbA-ubiquitin-IGFBP-3 fusion (pDM15427) (from UniProt P0AEG4) | fold increase in the recovery of bioactive IGFBP-3 (IGF-I binding activity of the crude extract, against the ubiquitin-IGFBP-3 fusion) [1]: 16 fold
0.089 | E. coli DsbA expressed with its leader sequence (pYZ9205) (from UniProt P0AEG4) (enzyme) | –
– | E. coli biotin holoenzyme synthetase (from UniProt P06709) | efficiency of in vivo biotinylation of the Ni-NTA purified proteins of pDM25450 and pDM25453 [3]: < 10 fold
0.1 | leaderless E. coli DsbA (pYZ9206) (from UniProt P0AEG4) (enzyme) | –
